{"source": "paper PMC4188077", "target": "SeMet-substituted C. elegans ZYG-1 cryptic polo-box (CPB) domain (residues 338-564) (C. elegans)", "experiment": "SEC-MALS", "data": [{"substance": "SeMet-substituted C. elegans ZYG-1 cryptic polo-box (CPB) domain (residues 338-564) (domain or fragment)", "values": [{"measurement": "stoichiometry N", "value": 2}]}]}
